Measurements published in the RNAGym collection of RNA variant scans (doi:10.7554/elife.90254).

B1: LINE1-mini (parent)
chain: GGCAGAGCUCAACACAGCGUGGCAAAGUGGCUGUGGCUAGACUGCC

Variants of: B1
Assay: self-cleavage, relative activity (ratio to wild type); higher = more cleavage; in vitro, sequencing; the parent is a self-cleaving ribozyme

| Variant | self-cleavage |
| --- | --- |
| C10A C42G | 0.16 |
| C10A C42A | 0.02 |
| C10A C42U | 0.03 |
| U9G A11G | 0.02 |
| U9G A11U | 0.03 |
| U9G A11C | 0.02 |
| C10A G33A | 0.04 |
| C10A G33U | 0.05 |
| C10A G33C | 0.03 |
| U9C C13U | 0.03 |
| U9C C13A | 0.05 |
| U9C C13G | 0.04 |
| U9C A24G | 0.07 |
| U9C A24U | 0.05 |
| U9C A24C | 0.02 |
| U9C G27C | 0.03 |
| U9C G27U | 0.04 |
| U9C G27A | 0.03 |
| C10A G27U | 0.06 |
| C10A G27C | 0.04 |
| C10A G27A | 0.06 |
| U9C A25U | 0.04 |
| U9C A25G | 0.04 |
| U9C A25C | 0.03 |

| Variant | self-cleavage |
| --- | --- |
| U9G A25G | 0.06 |
| U9G A25U | 0.14 |
| U9G A25C | 0.13 |
| U9G U43C | 0.04 |
| U9G U43A | 0.07 |
| C10A C46U | 0.07 |
| C10A C46G | 0.04 |
| C10A C46A | 0.05 |
| U9G G35U | 0.07 |
| U9G G35C | 0.03 |
| U9G G35A | 0.11 |
| U9G U34G | 0.05 |
| U9G U34C | 0.06 |
| U9G U34A | 0.04 |
| U9G A12C | 0.02 |
| U9G A12G | 0.02 |
| U9G A12U | 0.14 |
| C10A G40U | 0.03 |
| C10A G40A | 0.02 |
| C10A G40C | 0.02 |
| U9C G21U | 0.04 |
| U9C G21C | 0.06 |
| U9C G21A | 0.04 |
| U9G C45G | 0.21 |

| Variant | self-cleavage |
| --- | --- |
| U9G C45A | 0.11 |
| U9G C45U | 0.16 |
| U9C A41U | 0.06 |
| U9C A41C | 0.04 |
| U9C A41G | 0.05 |
| C10A G21A | 0.08 |
| C10A G21U | 0.04 |
| C10A G21C | 0.04 |
| U9G C42U | 0.05 |
| U9G C42G | 0.06 |
| U9G C42A | 0.08 |
| C10A A24G | 0.06 |
| C10A A24U | 0.05 |
| C10A A24C | 0.03 |
| U9C G30U | 0.02 |
| U9C G30C | 0.04 |
| U9C G30A | 0.03 |
| U9G C10A | 0.03 |
| U9G C10U | 0.05 |
| U9G C10G | 0.02 |
| U9G G33U | 0.08 |
| U9G G33C | 0.05 |
| U9G G33A | 0.06 |
| U9G G17U | 0.08 |

| Variant | self-cleavage |
| --- | --- |
| U9G G17A | 0.12 |
| U9G G17C | 0.1 |
| U9G G44U | 0.08 |
| U9G G44A | 0.12 |
| U9G G44C | 0.03 |
| U9G U32A | 0.12 |
| U9G U32C | 0.05 |
| U9G U32G | 0.05 |
| U9G G40U | 0.08 |
| U9G G40A | 0.08 |
| U9G G40C | 0.08 |
| C10A C31G | 0.03 |
| C10A C31A | 0.03 |
| C10A C31U | 0.04 |
| U9C C10G | 0.03 |
| U9C C10U | 0.04 |
| U9C C10A | 0.03 |
| U9C G19C | 0.05 |
| U9C G19A | 0.04 |
| U9C G19U | 0.08 |
| U9G C31G | 0.04 |
| U9G C31A | 0.04 |
| U9G C31U | 0.03 |
| C10A C15G | 0.04 |

| Variant | self-cleavage |
| --- | --- |
| C10A C15U | 0.08 |
| C10A C15A | 0.04 |
| U9C U28A | 0.03 |
| U9C U28C | 0.05 |
| U9C U28G | 0.04 |
| U9C A16C | 0.02 |
| U9C A16U | 0.04 |
| U9C A16G | 0.03 |
| U9C G40A | 0.03 |
| U9C G40U | 0.03 |
| U9C G40C | 0.03 |
| U9G C46U | 0.11 |
| U9G C46G | 0.05 |
| U9G C46A | 0.1 |
| U9G G19A | 0.18 |
| U9G G19C | 0.06 |
| U9G G19U | 0.1 |
| U9C U20G | 0.03 |
| U9C U20C | 0.02 |
| U9C U20A | 0.04 |
| U9C A11C | 0.02 |
| U9C A11G | 0.02 |
| U9C A11U | 0.03 |
| U9C A26G | 0.05 |

| Variant | self-cleavage |
| --- | --- |
| U9C A26U | 0.11 |
| U9C A26C | 0.03 |
| C10A A39C | 0.05 |
| C10A A39U | 0.24 |
| C10A A39G | 0.04 |
| U9G C13G | 0.08 |
| U9G C13U | 0.11 |
| U9G C13A | 0.19 |
| U9C G36C | 0.03 |
| U9C G36A | 0.09 |
| U9C G36U | 0.03 |
| U9C U43C | 0.02 |
| U9C U43G | 0.01 |
| U9C U43A | 0.03 |
| C10A A41C | 0.04 |
| C10A A41G | 0.03 |
| C10A A41U | 0.02 |
| U9G U38C | 0.09 |
| U9G U38A | 0.06 |
| U9G U38G | 0.01 |
| U9C C23A | 0.02 |
| U9C C23U | 0.02 |
| U9C C23G | 0.03 |
| U9G G27U | 0.06 |

| Variant | self-cleavage |
| --- | --- |
| U9G G27C | 0.08 |
| U9G G27A | 0.07 |
| U9C A39G | 0.02 |
| U9C A39U | 0.05 |
| U9C A39C | 0.02 |
| C10A G29A | 0.06 |
| C10A G29C | 0.04 |
| C10A G29U | 0.04 |
| C10A A12U | 0.04 |
| C10A A12G | 0.02 |
| C10A A12C | 0.04 |
| C10A G17C | 0.1 |
| C10A G17U | 0.05 |
| C10A G17A | 0.04 |
| C10A U34A | 0.05 |
| C10A U34G | 0.04 |
| C10A U34C | 0.04 |
| U9G A16G | 0.07 |
| U9G A16C | 0.03 |
| U9G A16U | 0.14 |
| C10G A11U | 0.04 |
| C10G A11G | 0.03 |
| C10G A11C | 0.02 |
